Square brackets hold non-standard residues; d marks the D form. Ends that are not written are not given here.
Columns and labels:
neurotensin receptor-1 [1] = molecular target: T1, neurotensin receptor-1 (human, UniProt P30989 1-418); experiment: competition with 177Lu-N1 on HT-29 cells
T1 construct: whole, on cells; Endogenous receptor on the NTSR1-positive HT-29 human colon cancer cell line; also called NTR1; NTSR1
Method: (§1) The IC₅₀ for the unlabeled conjugates binding to the neurotensin receptors was determined using the HT-29 human colon cancer cell line. In these studies, ¹⁷⁷Lu-N1 (¹⁷⁷Lu-DOTA-β-Ala-[N-α-Me⁸, Dmt¹¹, Tle¹²]NT(6-13)), which was synthesized according to published methods (Jia, et al. (2015) Nucl. Med. Biol., 42:816), served as the competitive radioligand for comparing the relative binding affinities of the conjugates. […] At the end of the incubation, the cells were centrifuged, aspirated, and washed with fresh medium (5×500 μL). The cell-associated radioactivity was measured using gamma counter and the IC₅₀ values determined by nonlinear regression using GraphPad Prism 5. All measurements were in biological triplicate.

neurotensin receptor-1 [2] = molecular target: T1, neurotensin receptor-1; experiment: competitive binding to NTR1
Method: as §1

T1 sequence (P30989 whole entry): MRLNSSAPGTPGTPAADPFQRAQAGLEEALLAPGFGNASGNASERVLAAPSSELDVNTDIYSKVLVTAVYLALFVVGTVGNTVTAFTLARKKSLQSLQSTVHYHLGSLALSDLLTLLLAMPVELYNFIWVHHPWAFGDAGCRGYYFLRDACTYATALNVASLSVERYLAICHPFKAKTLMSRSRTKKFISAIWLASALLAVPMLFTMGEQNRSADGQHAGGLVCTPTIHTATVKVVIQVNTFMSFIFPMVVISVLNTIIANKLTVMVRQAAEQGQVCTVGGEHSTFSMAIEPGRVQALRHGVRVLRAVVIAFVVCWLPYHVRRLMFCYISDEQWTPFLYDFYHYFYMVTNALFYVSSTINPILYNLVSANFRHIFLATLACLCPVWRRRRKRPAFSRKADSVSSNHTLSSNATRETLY

B1: 3a (peptide)
peptide: KPRRPYIL
modifications: not fully specified; also: N-terminal DOTA, X linker PEG3, Y linker β-Ala, N-Me-Arg, Dmt, Tle building blocks, places not given here
notes: matched control of 2c; also called compound 3a
Work on B1 yielded an IC50 (neurotensin receptor-1 [1]) of 49 nM.

B2: 3b (peptide)
peptide: [dS][dS][dS]KPRRPYIL
modifications: not fully specified; also: N-terminal DOTA, X linker Gly-(D)Ser3, N-Me-Arg, Dmt, Tle building blocks, places not given here
notes: matched control of 2f; also called compound 3b
Work on B2 yielded an IC50 (neurotensin receptor-1 [1]) of 52 nM.

B3: Ec (peptide)
peptide: KPRRPYIL
modifications: not fully specified; also: DOTA on the peptide, linkers and non-natural residues not given here
B3 showed an IC50 (neurotensin receptor-1 [2]) of 63 nM.

Reference: patent US20200316233A1 (BOARD OF REGENTS OF THE UNIVERISTY OF NEBRASKA, published 2020)
